The subject of one data set is PAR. Put plainly: nitrocellulose saturation binding experiments. The following applies: result in words. The source says:
Applicants thereafter repeated the experiments using both wild type and mutant AIFm peptides spanning only amino acids 567-592 instead of full length AIFm and obtained results consistent with those using full-length AIF. […] The double amino acid mutant Dm (corresponding to only amino acids 567-592 of AIF-Dm so as to consist of SEQ. ID NO. 16) bound PAR. […] Thus, it is preferred in embodiments of the invention when conducting genetic manipulations to convert at least three target basic amino acids in the PBM to hydrophobic amino acids.
The PAR polymer binding properties of the mutant Pbm-AIF was then measured using full-length recombinant His-WT-AIF and His tagged Pbm-AIF (“His-Pbm-AIF”) via a series of nitrocellulose saturation binding experiments. Similar experiments were also conducted for the shorter peptides Dm and Tm in comparison to WT. FIG. 10B through FIG. 10D comprise charts reporting data from these various experiments. With regard to the shorter peptides, Applicants determined that the binding affinity constant (“Kd”) and maximum binding capacity (“Bmax”) of these AIF mimetic peptides and the results are reported in the chart of FIG. 10B. […] FIG. 10D comprises a Scatchard plot (95% confidence interval) of the results.

Data set [1] is described as follows: NADH oxidase activity of AIF. The data set is classed as biochemical. The following applies: compared to His-WT-AIF. The protocol: Unless otherwise set forth herein, the determination of NADH Oxidase Activity and FAD binding of AIF in the various examples below was performed using the following materials and procedures. AIF's NADH oxidase activity was determined as previously described by M. Miramar et al. (J Biol Chem, 2001). In brief, the NADH oxidase activity was measured at room temperature in substrate solution containing 250 μM NADH in air-saturated 50 mM Tris-HCl, pH 8.0. The decrease in absorbance at OD340 nm was monitored right after the addition of recombinant His-tagged AIF into the substrate solution. In situ redox activity of recombinant His-tagged AIF was performed as previously described by J. Gagne et al. (Nucleic Acids Res, 2008). […] FAD binding to AIF was monitored at 13 μM concentration of His-tagged AIF by wave length scanning ranging from 250-800 nm using Beckman Coulter DU800 UV/Vis spectrophotometer.
Independent of its role in parthanatos, AIF has NADH (the reduced form of nicotinamide adenine dinucleotide) oxidase activity, binds to FAD (flavin adenine dinucleotide) and DNA, and causes nuclear condensation. To determine whether the triple amino acid mutation found in Pbm-AIF interferes with these properties, Applicants assessed the NADH oxidase activity, FAD-binding capacity, and DNA-binding capacity of full-length His-WT-AIF and His-Pbm-AIF. […]

Data set [2] can be described thus: FAD binding by spectrophotometric wave length scanning. The following applies: His-Pbm-AIF versus His-WT-AIF. The protocol:
Unless otherwise set forth herein, the determination of NADH Oxidase Activity and FAD binding of AIF in the various examples below was performed using the following materials and procedures. AIF's NADH oxidase activity was determined as previously described by M. Miramar et al. (J Biol Chem, 2001). In brief, the NADH oxidase activity was measured at room temperature in substrate solution containing 250 μM NADH in air-saturated 50 mM Tris-HCl, pH 8.0. The decrease in absorbance at OD340 nm was monitored right after the addition of recombinant His-tagged AIF into the substrate solution. In situ redox activity of recombinant His-tagged AIF was performed as previously described by J. Gagne et al. (Nucleic Acids Res, 2008). The AIF protein was separated on a 10% native gel and then the gel was briefly washed in distilled water. The gel was equilibrated in 2,2′-Di-p-nitrophenyl-5-5′-diphenyl-3,3′ (3-3′-dimethoxy-4-4′difenilen)tetrazolium chloride (“NBT”) solution for 20 minutes in the dark followed by the addition of 1 mM NADH to NBT solution to reduce NBT. FAD binding to AIF was monitored at 13 μM concentration of His-tagged AIF by wave length scanning ranging from 250-800 nm using Beckman Coulter DU800 UV/Vis spectrophotometer.
FAD binding of His-WT-AIF and His-Pbm-AIF was determined by spectrophotometric wave length scanning of purified proteins. […]

A further data set relates to DNA. The data set can be described thus: DNA retardation assay. The following applies: DNA (200 ng), 30 minutes. Format: binding. The protocol:
AIF binding-mediated DNA mobility retardation was performed as described by H. Cande et al. (Nat Struct Biol, 2002). Recombinant His-tagged AIF (10 μg or 25 μg) was incubated with 1 kb DNA molecular weight marker (obtained from Fermentas) for 30 minutes at room temperature and loaded on 2.5% agarose gel prestained with ethidium bromide (1 μg/ml). Mobility shift was visualized under the Alpha Innotech UV illuminator.
Further, a DNA retardation assay of His-WT-AIF and His-Pbm-AIF was conducted by incubating both with DNA (200 ng) for 30 minutes, using BSA as a negative control.

B1: His-Pbm-AIF: His tagged Pbm-AIF (protein, UniProt Q9Z0X1 1-612, looked up, variant R588A K589A K592A)
chain: MFRCGGLAGAFKQKLVPLVRTVYVQRPKQRNRLPGNLFQQWRVPLELQMARQMASSGSSGGKMDNSVLVLIVGLSTIGAGAYAYKTIKEDQKRYNERVMGLGLSPEEKQRRAIASATEGGSVPQIRAPSHVPFLLIGGGTAAFAAARSIRARDPGARVLIVSEDPELPYMRPPLSKELWFSDDPNVTKTLQFRQWNGKERSIYFQPPSFYVSAQDLPNIENGGVAVLTGKKVVHLDVRGNMVKLNDGSQITFEKCLIATGGTPRSLSAIDRAGAEVKSRTTLFRKIGDFRALEKISREVKSITVIGGGFLGSELACALGRKSQASGIEVIQLFPEKGNMGKILPQYLSNWTMEKVKREGVKVMPNAIVQSVGVSGGRLLIKLKDGRKVETDHIVTAVGLEPNVELAKTGGLEIDSDFGGFRVNAELQARSNIWVAGDAACFYDIKLGRRRVEHHDHAVVSGRLAGENMTGAAKPYWHQSMFWSDLGPDVGYEAIGLVDSSLPTVGVFAKATAQDNPKSATEQSGTGIRSESETESEASEITIPPSAPAVPQVPVEGEDYGKGVIFYLRDKVVVGIVLWNVFNRMPIAAAIIADGEQHEDLNEVAKLFNIHED
modifications: full-length His tag
As to B1, the “PAR binding in saturation binding experiments” value with PAR was “much less (and virtually linear) binding”. Moreover, the NADH oxidase activity result in data set [1] was “no significant change in NADH oxidase activity”. Also, the FAD binding properties result in data set [2] is listed as “no significant difference”. Moreover, the DNA-binding properties entry in the data set on DNA is on record as “comparable”.

(Values after patent publication US20120122765A1, “COMPOUNDS AND RELATED METHODS FOR MANIPULATING PARP-1-DEPENDENT CELL DEATH” (priority 2010, published 2012).)
